Data on one substance can be found in ChEMBL document CHEMBL2073751, “Adenosine triphosphate-dependent transport of estradiol-17beta(beta-D-glucuronide) in membrane vesicles by MDR1 expressed in insect cells” (Hepatology, 1998).

In the data set the test system is C[C@]12CC[C@@H]3c4ccc(O)cc4CC[C@H]3[C@@H]1CC[C@@H]2O[C@@H]1O[C@H](C(=O)O)[C@@H](O)[C@H](O)[C@H]1O. Briefly: TP_TRANSPORTER: uptake in membrane vesicle from MDR1-expressing Sf9 cells. In kind it is functional, cell membranes.

“ATP-dependent translocase ABCB1 (Homo sapiens)”: the Km is 62 µM.
